Results taken from publication PMC4385502 (Molecular cell, 2015).

Target: the molecule itself
Test: SEC

B1: RIG-I-TD (RIG-I triple deamidation mutant) (natural protein)
chain: MTTEQRRSLEAFQDYIRKTLDPTYILSYMAPWFREEEVQYIQAEKNNKGPMEAATLFLKFLLELQEEGWFRGFLDALDHAGYSGLYEAIESWDFKKIEKLEEYRLLLKRLQPEFKTRIIPTDIISDLSECLINQECEEILQICSTKGMMAGAEKLVECLLRSDKENWPKTLKLALEKERNKFSELWIVEKGIKDVETEDLEDKMETSDIQIFYQEDPECQNLSENSCPPSEVSDTNLYSPFKPRDYQLELALPAMKGKNTIICAPTGCGKTFVSLLICEHHLKKFPQGQKGKVVFFANQIPVYEQQKSVFSKYFERHGYRVTGISGATAENVPVEQIVENNDIIILTPQILVNNLKKGTIPSLSIFTLMIFDECHNTSKQHPYNMIMFNYLDQKLGGSSGPLPQVIGLTASVGVGDAKNTDEALDYICKLCASLDASVIATVKHDLEELEQVVYKPQKFFRKVESRISDKFKYIIAQLMRDTESLAKRICKDLENLSQIQNREFGTQKYEQWIVTVQKACMVFQMPDKDEESRICKALFLYTSHLRKYNDALIISEHARMKDALDYLKDFFSNVRAAGFDEIEQDLTQRFEEKLQELESVSRDPSNENPKLEDLCFILQEEYHLNPETITILFVKTRALVDALKNWIEGNPKLSFLKPGILTGRGKTNQNTGMTLPAQKCILDAFKASGDHNILIATSVADEGIDIAQCNLVILYEYVGNVIKMIQTRGRGRARGSKCFLLTSNAGVIEKEQINMYKEKMMNDSILRLQTWDEAVFREKILHIQTHEKFIRDSQEKPKPVPDKENKKLLCRKCKALACYTADVRVIEECHYTVLGDAFKECFVSRPHPKPKQFSSFEKRAKIFCARQNCSHDWGIHVKYKTFEIPVIKIESFVVEDIATGVQTLYSKWKDFHFEKIPFDPAEMSK
  binding result: binds
